In patent US7202050:

Target: T1, TMR-Asp-Glu-Ser-Glu-Glu-Glu-Asp-Lys(Nε-Flsn)-COOH reporter peptide (casein kinase II substrate peptide), unphosphorylated (not fully specified)
T1 chain: DESEEEDK

B1: Human casein kinase II (CKII) (protein)
chain: MSGPVPSRARVYTDVNTHRPREYWDYESHVVEWGNQDDYQLVRKLGRGKYSEVFEAINITNNEKVVVKILKPVKKKKIKREIKILENLRGGPNIITLADIVKDPVSRTPALVFEHVNNTDFKQLYQTLTDYDIRFYMYEILKALDYCHSMGIMHRDVKPHNVMIDHEHRKLRLIDWGLAEFYHPGQEYNVRVASRYFKGPELLVDYQMYDYSLDMWSLGCMLASMIFRKEPFFHGHDNYDQLVRIAKVLGTEDLYDYIDKYNIELDPRFNDILGRHSRKRWERFVHSENQHLVSPEALDFLDKLLRYDHQSRLTAREAMEHPYFYTVVKDQARMGSSSMPGGSTPVSSANMMSGISSVPTPSPLGPLAGSPVIAAANPLGMPVPAAAGAQQ
- phosphorylation of the peptide by CKII, HPLC analysis: Phosphorylation of the peptide by CKII was confirmed by incubation of the peptide with kinase
